This series is described as follows: yeast display, Sf9 membrane polyspecificity reagent, FACS + sequencing; frameworks hold sequencing errors. The essentials: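 A nanobody's polyreactivity label depends on the gate it was sorted from. Yeast display cells were stained with 10% biotinylated, detergent-solubilized Sf9 membrane reagent for 1 hour at 4 °C, enriched on streptavidin microbeads and sorted by FACS. The low and high (top ~1%) gates were set on anti-HA fluorescence for expression and streptavidin fluorescence for reagent binding.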
For “QVQLVESGGGLVQAGGSLRLSCAASGRTFKRYAMGWYRQAPGKERELVAAITWSGGNTYYADSVKGRFTISRDNAKNTVYLQINSLKPEDTAVYYCAAKGAGRRYDSWGQGTQVTVSS”, the “polyreactivity (PSR sort gate)” value is reported as “high polyreactivity”.

With “QVQLVESGGGLVQAGGSLRLSCAASGRTFKSYAMGWYRQAPGKERELVAAISKRGGSTYYADSVKGRFTISRDNAKNTVYLQMNSLKPADTAVYYCNKLYLKPGRYYYWGQGTQVTVSS”, the “polyreactivity (PSR sort gate)” value is reported as “high polyreactivity”.

“QVQLVESGGGLVQAGGSLRLSCAASGRTFKVYAMGWYRQAPGKERELVAAITGGGSTNYADSVKGRFTISRDNAKNTVYLQMNSLKPEDTAVYYCNARYYYRLVKWSRFSSYDYWGQGTQVTVSS”: the “polyreactivity (PSR sort gate)” value was “low polyreactivity”.

As to “QVQLVESGGGLVQAGGSLRLSCAASGRTFKYNAMAWYRQAPGTERELVADISYSGDSTYYADSVKGRFTISRDNAKNTVYLQMNSLKPEDTAVYYCNAVLTHGRLWRAHGYWGQGTQVTVSS”, the “polyreactivity (PSR sort gate)” value is given as “high polyreactivity”.

As to “QVQLVESGGGLVQAGGSLRLSCAASGRTFKYNAMGWYRPAPGKERELVAAISSTGSTNYADSVKGRFTISRDNAKNTVYLQMNSLKPEDTAVYYCAASYFFVQWGWYYYWGQGTQVTVSS”, the “polyreactivity (PSR sort gate)” value was “low polyreactivity”.

With “QVQLVESGGGLVQAGGSLRLSCAASGRTFKYNAMGWYRQAPGKERELVAAIRKSGTRTYYADSVKGRFTISRDNAKNTVYLQMNSLKPEDTAVYYCNRVGFDYWGQGTQVTVSS”, the “polyreactivity (PSR sort gate)” value is “low polyreactivity”.

“QVQLVESGGGLVQAGGSLRLSCAASGRTFKYNAMVWYRQAPGKERELVATISGSGGRKYYADSVKGRFTISRDNAKNTVYLQMNSLKPEDTAVYYCKAPRVKWLDWGQGTKVTVSS”: the “polyreactivity (PSR sort gate)” value is “high polyreactivity”.

Take “QVQLVESGGGLVQAGGSLRLSCAASGRTFKYNSMGWYRQAPGKERELVAAITRSGSTYYADSVKGRFTISRDNAKNTVYLQMNSLKPEDTAVYYCNARIVNYGSYYYWGQGTQVTVSS”: the “polyreactivity (PSR sort gate)” value is recorded as “high polyreactivity”.

With “QVQLVESGGGLVQAGGSLRLSCAASGRTFKYNVMGWYRQAPGKERELVAAISSGGGTNYADSVKGRFTISRDNAKNTVYLQMNSLKPEDTAVYYCAAKYAWRLLEMYYWGQGTQVTVSS”, the “polyreactivity (PSR sort gate)” value is “low polyreactivity”.

On to “QVQLVESGGGLVQAGGSLRLSCAASGRTFKYYAMGWYRQAPGKERELVAAISLSSGRTYYADSVKGRFTISRDIAKNTVYLQMNSLKPEDTAVYYCARVTTGGYEYWGQGTQVTVSS”, for which the “polyreactivity (PSR sort gate)” value is recorded as “high polyreactivity”.

Regarding “QVQLVESGGGLVQAGGSLRLSCAASGRTFKYYAMGWYRQAPGKERELVAAISNGGRTNYADSVKGRFTISRDNAKNTVYLQMNSLKPEDTAVYYCAKRSFYFSDYDYWGQGTQVTVSS”, the “polyreactivity (PSR sort gate)” value is “high polyreactivity”.

As for “QVQLVESGGGLVQAGGSLRLSCAASGRTFKYYAMGWYRQAPGKERELVATISFRGGSTYYADSVKGRFTISRDNAKNTVYLQMNSLKPEDTSVYYCARRQWSRRPDDYWGQGTQVTVSS”, the “polyreactivity (PSR sort gate)” value is “high polyreactivity”.

In the case of “QVQLVESGGGLVQAGGSLRLSCAASGRTFKYYAMGWYRQAPGKERELVATITWSGTSTNYADSVKGRFTISRDTANNSVYLQMNSLKPEDTAVYYCAARSKRRNYDYWGQGTQVTVSS”, the “polyreactivity (PSR sort gate)” value is listed as “high polyreactivity”.

Take “QVQLVESGGGLVQAGGSLRLSCAASGRTFKYYTMGWYRQAPGKEREFVAAITSSGGRTYYADSVKGRFTISRDNAKNTVYLQMNSLKPEDTAVYYCAASTYRVWLAPATLSRYDYWGQGTQVTVSS”: the “polyreactivity (PSR sort gate)” value was “high polyreactivity”.

Turning to “QVQLVESGGGLVQAGGSLRLSCAASGRTFKYYTMGWYRQAPGKERELVAAITGSGGSTYYADSVKGRFTISRDNAKNTVYLQMNSLKPEDTAVYYCAAYRTFSREYYYWGQGTQVTVSS”, the “polyreactivity (PSR sort gate)” value is listed as “high polyreactivity”.

Take “QVQLVESGGGLVQAGGSLRLSCAASGRTFLAIGWYRQAPGKETELVATINGSDGNTYYADSVKGRFTISRDNAENTVYLQMNILKPEDTAVYYCAKRADHTYLPLRPGYPEYNYWRQGTQVTVSS”: the “polyreactivity (PSR sort gate)” value is given as “low polyreactivity”.

“QVQLVESGGGLVQAGGSLRLSCAASGRTFLDNAMGWYRQAPGKERELVAAISYSGGSTYYADSVKGRFTISRDNAKNTVYLQMNSLKPEDTAVYYCAADPRQYDYYLLAYDYWGQGTQVTVSS”: the “polyreactivity (PSR sort gate)” value is on record as “low polyreactivity”.

In the case of “QVQLVESGGGLVQAGGSLRLSCAASGRTFLGYSMGWYRQAPAKERELVAAISGSCDRTYYADSVKGRFTISRDNAKHTVYLQMYSLKPEYTEVYYCNAVTVRYYASYYGRGMDYWGQGTQETVSS”, the “polyreactivity (PSR sort gate)” value was “high polyreactivity”.

Take “QVQLVESGGGLVQAGGSLRLSCAASGRTFLGYTMGWYRQAPGKEREFVAAITFSGDSTYYADSVKGRFTISRDNAKNTVYLQMNSLKPEDTAVYYCAARKKYYTYLFYYWGQGTQVTVSS”: the “polyreactivity (PSR sort gate)” value is “high polyreactivity”.

In the case of “QVQLVESGGGLVQAGGSLRLSCAASGRTFLHNAMGWYRQAPGKERELVAAITWSGGSTYYADSVKGRFTISRDNAKNTVYLQMNSLKPEDTAVYYCNARHRYYRYGYWGQGTQVTVSS”, the “polyreactivity (PSR sort gate)” value was “high polyreactivity”.

For the sequence “QVQLVESGGGLVQAGGSLRLSCAASGRTFLINAMGWYRQAPGKERELVADITGRGSSTYYADSVKGRFTISRDNAKNTVYLQMNSLKPEDTAVYYCNAVLRKITYDYWGQGTQVTVSS”, the “polyreactivity (PSR sort gate)” value was “high polyreactivity”.

For the sequence “QVQLVESGGGLVQAGGSLRLSCAASGRTFLIYAMGWYRQAPGKEREFVATITYSGGSTYYADSVKGRFTISRDNAKNTVYLQMNSLKPEDTAVYYCAAVRYGYRRSGPYNYSYDYWGQGTQVTVSS”, the “polyreactivity (PSR sort gate)” value is “high polyreactivity”.

On to “QVQLVESGGGLVQAGGSLRLSCAASGRTFLIYAMGWYRQAPGKERELVAAITSGGRTKYADSVKGRFTISRDNAKYTVYLQMNSLKPEDTAVYYCAARTGVYRYSRKFDYWGQGTQVTVSS”, for which the “polyreactivity (PSR sort gate)” value is “high polyreactivity”.

Regarding “QVQLVESGGGLVQAGGSLRLSCAASGRTFLLNAMGWSRQAPGKERELVAAITRSGVITYYADSVKGRFTISRDNAKNTVYLQMNSLKPEDTAVYYCAAQLRYSYLRPSYYYWGQGTQVTVSS”, the “polyreactivity (PSR sort gate)” value is reported as “high polyreactivity”.

Consider “QVQLVESGGGLVQAGGSLRLSCAASGRTFLLYAMGWYRQAPGKERELVAAIRSSTVSTYYADSVKGRFTISRDNAKNTVYLQMNSLKPEDTAVYYCAASRPKYGPSGVHYNYWGQGTQVTVSS”, for which the “polyreactivity (PSR sort gate)” value is listed as “high polyreactivity”.

On to “QVQLVESGGGLVQAGGSLRLSCAASGRTFLLYAMGWYRQAPGKERELVAAITRGGRTNYADSVKGRFTISRDNAKNTVYLQMNSLKPEDTAVYYCAARYVERHTDYYYWGQGTQVTVSS”, for which the “polyreactivity (PSR sort gate)” value is recorded as “low polyreactivity”.

On to “QVQLVESGGGLVQAGGSLRLSCAASGRTFLNYAMRWNRQAPVKERELVAAITDGDSTNYADSVKGRFTISRDNAKNTVYLQMNSLKPEDTAVYYCNAPSLAYRYYYWGQGTQVTVSS”, for which the “polyreactivity (PSR sort gate)” value is “high polyreactivity”.

For “QVQLVESGGGLVQAGGSLRLSCAASGRTFLPNAMGWYRQAPGKERELVAVITSGGSTNYADSVKGRFTISRDNAKNTVYLQMNSLKPEDTAVYYCASRRWSSSQGHWGKSAGYGYWGQGTQVTVSS”, the “polyreactivity (PSR sort gate)” value is “low polyreactivity”.

On to “QVQLVESGGGLVQAGGSLRLSCAASGRTFLPNDMGWSIQAPGKERELVAAITDSGGDTYYADSVKGRFTISRDNAKNTVYLQMNSLKPEDTAVYYCAADYYYYGSYYPVEYWGQGTQVTVSS”, for which the “polyreactivity (PSR sort gate)” value is “high polyreactivity”.

With “QVQLVESGGGLVQAGGSLRLSCAASGRTFLRNAMGWYRQAPGKERELVAAISSGGGRTYYADSVKGRFTISRDNAKNTVYLQMNSLKPEDTAVYYCAALYQYLGGVYEGYYWGQGTQVTVSS”, the “polyreactivity (PSR sort gate)” value is reported as “high polyreactivity”.

Turning to “QVQLVESGGGLVQAGGSLRLSCAASGRTFLRNAMGWYRQAPGKERELVATISWGGGSTYYADSVKGRFTISRDNAKNTVYLQMNSLKPEDTAVYYCAKQRAWSGFDYWGQGTQVTVSS”, the “polyreactivity (PSR sort gate)” value is given as “high polyreactivity”.

For “QVQLVESGGGLVQAGGSLRLSCAASGRTFLRYAMGWYRQAPGKERELVAAISSRGGSTYYADSVKGRFTISRDNAKNTVYLQMNSLKPEDTAVYYCAADTYYTRYYYWGQGTQVTVSS”, the “polyreactivity (PSR sort gate)” value is “high polyreactivity”.

For the sequence “QVQLVESGGGLVQAGGSLRLSCAASGRTFLRYAMGWYRQAPGKERELVAAISSRGGSTYYADSVKGRFTISRDNAKNTVYLQMNSLKPEDTAVYYCAARFLHYYPTRGYTYDYWGQGTQVTVSS”, the “polyreactivity (PSR sort gate)” value was “high polyreactivity”.

For “QVQLVESGGGLVQAGGSLRLSCAASGRTFLRYAMGWYRQAPGKERELVAAITYGGRTNYADSVKGRFTISRDNAKNTVYLQMNSLKPEDTAVYYCAADRTYYYGLRVDYWGQGTQVTVSS”, the “polyreactivity (PSR sort gate)” value is listed as “high polyreactivity”.

As for “QVQLVESGGGLVQAGGSLRLSCAASGRTFLTYVMGWYRQAPWKERELVAAITRGGRTNYADSVKGRFTISRDNAKNTVYLQMNSLKPEDTAVYYCARDDTPRYDYWGQGTQVTVSS”, the “polyreactivity (PSR sort gate)” value is “low polyreactivity”.

For “QVQLVESGGGLVQAGGSLRLSCAASGRTFLVNAMGRYREAPGKVREFVAAITSRSGRTNYADSVKGRFTISRDNAKNTLYLQMNRLQPEDTAVYYCNAEGYTVKYWYSRYDYWGQGTQVTVSS”, the “polyreactivity (PSR sort gate)” value is given as “high polyreactivity”.

“QVQLVESGGGLVQAGGSLRLSCAASGRTFLVYALGWYRQAPGKERELVAGITSGGGTYYADSVKGRFTISRDNAMNTVYLQINSLKPEETAVYYCAKYRWYGVYWGQVTQVTVSS”: the “polyreactivity (PSR sort gate)” value is on record as “low polyreactivity”.

Take “QVQLVESGGGLVQAGGSLRLSCAASGRTFLWNAMGWYRQAPGKERELVAAISISGGNTNYADSVKGRFTISRDNAKNTVYLQINSLKPEDTAVYYCNADPRAEPGDWSYEMDYWGQGTQVTVSS”: the “polyreactivity (PSR sort gate)” value is listed as “low polyreactivity”.

As to “QVQLVESGGGLVQAGGSLRLSCAASGRTFLWYAMGWYRQAPGKEREFVAAITSSGGDTYYADSVKGRFTISRDNAKNTVYLQMNSLKPADTAVYYCAARTRKWFDYAIHYYWGQGTQVTVSS”, the “polyreactivity (PSR sort gate)” value is recorded as “low polyreactivity”.

On to “QVQLVESGGGLVQAGGSLRLSCAASGRTFLYNAMGWYRQAPGKERELVAAISWSGGSTYYADSVKGRFTISRDNAKNTVYLQMNSLKPEDTAVYYCAAYWVWPGRYWYDYWGQGTQVTVSS”, for which the “polyreactivity (PSR sort gate)” value is listed as “high polyreactivity”.

For the sequence “QVQLVESGGGLVQAGGSLRLSCAASGRTFLYNAMGWYRQAPGKERELVASLTRRGGTTYYADSVKGRFTISRDFAKNNVYFQMISLKPEVTAVYYCNAQPGISYYYYGHWYGYWGQGTQVTVSS”, the “polyreactivity (PSR sort gate)” value is “high polyreactivity”.

The record behind these values is the nanobody polyreactivity screen of Harvey et al. (2022).
